Measured values taken from publication PMC10350917 (Journal of Medicinal Chemistry, 2023).
“And” between values parts separate entries of the source, which are not always exact repeats. Equal entries are not always repeated.

Columns and labels:
[1] = test system: KPC-2; conditions: ref [14],[25]; cited from earlier work
[2] = molecular target: ADC variants; test: Inhibition kinetics, statement for all ADC variants; assay type: biochemical, Acinetobacter baumannii; conditions: bound stated for all ADC variants of the study
Experimental: (§1) For inhibition kinetics, utilizing nitrocefin (NCF) as a colorimetric substrate, the inhibition constant (Ki) of MB076 and S02030 BATSI with ADCs was determined using competition kinetics as previously described.[10],[25],[28],[34] The measurements of the initial velocities were performed with the addition of 100 μM NCF after a 3 min pre-incubation of the enzyme (2 nM) with increasing concentration of the inhibitor. […] The Ki value was corrected for the NCF affinity (KM values for each ADC variant listed in Table 1) with the Cheng–Prusoff[35] equation: [drawing 2]

[3] = molecular target: ADC-162 (Acinetobacter baumannii, UniProt A0A2H4PPJ8); test: Inhibition kinetics (competition with nitrocefin), ADC-162; assay type: biochemical
Experimental: as §1

[4] = test system: SHV-1; conditions: ref [14],[25]; cited from earlier work
[5] = molecular target: ADC-30 (Acinetobacter baumannii, UniProt A7XM81); test: Inhibition kinetics (competition with nitrocefin), ADC-30; assay type: biochemical; conditions: 100 μM nitrocefin, 3 min pre-incubation
Experimental: as §1

[6] = physchem; conditions: buffer, pH 7.4
Experimental: (§2) The in vitro stability of MB076 and S02030 was evaluated by incubating the compounds in both buffer (pH 7.4) and human plasma at 37 °C over 48 h. Half-lives (t1/2) were then calculated for each compound.
(§3) Plasma and buffer stability samples were analyzed by monitoring the disappearance of the compounds using high-performance liquid chromatography-mass spectrometry (LC–MS) techniques.
Standard solutions were prepared by adding the compound in DMSO (2.5 μM) to 0.1 M phosphate buffer pH 7.4 and MeOH. Solutions were vortexed, filtered, and analyzed by LC–MS (At=0). Samples were then prepared by adding a solution of the compound in DMSO (2.5 μM) to phosphate buffer pH 7.4 and incubating at 37 °C. At suitable time intervals, the reaction was stopped by the addition of MeOH. The solutions were vortexed and filtered. Degradation time courses were followed by LC–MS enabling the quantitation of compounds. Half-lives (t1/2) were calculated in Origin using a one-phase decay model with t1/2 = ln(2)/b, where b is the slope of a linear plot of natural logarithm (ln) of the remaining compound concentration (C) versus incubation time. Each condition was tested in triplicate.

[7] = molecular target: ADC-7 (Acinetobacter baumannii, UniProt Q6DRA1); conditions: ref [10]; cited from earlier work
[8] = molecular target: T1, ADC-33 (Acinetobacter baumannii, UniProt A7Y407); test: Inhibition kinetics (competition with nitrocefin), ADC-33; assay type: biochemical; conditions: 100 μM nitrocefin, 3 min pre-incubation
Experimental: as §1

[9] = in vitro; conditions: human, plasma, pH 7.4
Experimental: as §2, §3
Half-lives (t1/2) were calculated in Origin using a one-phase decay model with t1/2 = ln(2)/b, where b is the slope of a linear plot of natural logarithm (ln) of the remaining compound concentration (C) versus incubation time. Each condition was tested in triplicate.

[10] = test system: ADC-7 in pBCSK(−) E. coli DH10B; test: Broth microdilution AST, ADC-7; assay type: cell-based; conditions: Escherichia coli, E. coli DH10B ADC-7, MB076 fixed at 10 mg/L in combinations, FDC in iron-depleted broth
Experimental: (§4) Susceptibility testing to standard antibiotics was performed by broth microdilution or agar dilution using an Oxoid replicator according to 2021 Clinical and Laboratory Standards Institute (CLSI) guidelines. MICs for CAZ, CTX, FEP, and TOL were determined using cation-adjusted Mueller Hinton MH broth, and MICs for FDC were done in iron-depleted cation-adjusted MH broth according to CLSI methods. MB076, S02030, and VAB were used at a fixed concentration of 10 mg/L. All MICs were interpreted according to the 2021 CLSI guidelines.[43]
(§5) blaADC-7 pBCSK- was cloned and expressed in E. coli DH10B cells as previously described.[44] All other blaADC variants were synthesized by GenScript according to the blaADC-7 pBCSK- strategy, cloning into the XbaI/BamHI sites of the pBCSK- vector.

[11] = test system: ADC-212 in pBCSK(−) E. coli DH10B; test: Broth microdilution AST, ADC-212; assay type: cell-based; conditions: Escherichia coli, E. coli DH10B ADC-212, MB076 fixed at 10 mg/L in combinations, FDC in iron-depleted broth
Experimental: as §4, §5

[12] = test system: ADC-219 in pBCSK(−) E. coli DH10B; test: Broth microdilution AST, ADC-219; assay type: cell-based; conditions: Escherichia coli, E. coli DH10B ADC-219, MB076 fixed at 10 mg/L in combinations, FDC in iron-depleted broth
Experimental: as §4, §5

[13] = test system: ADC-30 in pBCSK(−) E. coli DH10B; test: Broth microdilution AST, ADC-30; assay type: cell-based; conditions: Escherichia coli, E. coli DH10B ADC-30, MB076 fixed at 10 mg/L in combinations, FDC in iron-depleted broth
Experimental: as §4, §5

[14] = test system: ADC-33 in pBCSK(−) E. coli DH10B; test: Broth microdilution AST, ADC-33; assay type: cell-based; conditions: Escherichia coli, E. coli DH10B ADC-33, MB076 fixed at 10 mg/L in combinations, FDC in iron-depleted broth
Experimental: as §4, §5

[15] = molecular target: T1, ADC-33; conditions: ADC-33; substrate
Experimental: Steady-state kinetic parameters were determined by combining pure enzyme with antibiotic substrates in 50 mM NaH2PO4, pH 7.4 at room temperature. Changes in absorbance were measured on a Cary 60 UV–Vis spectrophotometer (Agilent Technologies) and converted to velocity using the change in extinction coefficient specific to nitrocefin (ε482 = 17,400 M^–1·cm^–1), cephalothin (ε262 = 7660 M^–1·cm^–1), ceftazidime (ε260 = 8660 M^–1·cm^–1), cefotaxime (ε260 = 7500 M^–1·cm^–1), cefepime (ε260 = 750 M^–1·cm^–1), cefiderocol (ε259 = 9430 M^–1·cm^–1), and ceftolozane (ε254 = 6810 M^–1·cm^–1). Initial velocities were fit to the Michaelis–Menten equation yielding kcat and KM values. For ADC/substrate combinations in which the KM was too large to accurately determine both kcat and KM values, the initial velocities at kcat/KM values were calculated from linear fits of vo in low [S] ranges (<0.08 × KM).

[16] = test system: CC(C)(O/N=C(\C(=O)N[C@@H]1C(=O)N2C(C(=O)[O-])=C(C[n+]3ccccc3)CS[C@H]12)c1csc(N)n1)C(=O)O; test: purified protein, by the assay type; conditions: 50 mM NaH2PO4 pH 7.4, room temperature
[17] = test system: O=C(Cc1cccs1)N[C@@H]1C(=O)N2C(C(=O)O)=C(/C=C/c3ccc([N+](=O)[O-])cc3[N+](=O)[O-])CS[C@H]12; test: purified protein, by the assay type; conditions: 50 mM NaH2PO4 pH 7.4, room temperature
[18] = test system: CC(=O)OCC1=C(C(=O)O)N2C(=O)[C@@H](NC(=O)Cc3cccs3)[C@H]2SC1; test: purified protein, by the assay type; conditions: 50 mM NaH2PO4 pH 7.4, room temperature
[19] = test system: CC(C)(O/N=C(\C(=O)N[C@@H]1C(=O)N2C(C(=O)[O-])=C(C[N+]3(CCNC(=O)c4ccc(O)c(O)c4Cl)CCCC3)CS[C@H]12)c1csc(N)n1)C(=O)O; test: purified protein, by the assay type; conditions: 50 mM NaH2PO4 pH 7.4, room temperature
[20] = test system: Cn1c(N)c(NC(=O)NCCN)c[n+]1CC1=C(C(=O)O)N2C(=O)[C@@H](NC(=O)/C(=N\OC(C)(C)C(=O)[O-])c3nsc(N)n3)[C@H]2SC1; test: purified protein, by the assay type; conditions: 50 mM NaH2PO4 pH 7.4, room temperature
[21] = test system: CO/N=C(\C(=O)N[C@@H]1C(=O)N2C(C(=O)[O-])=C(C[N+]3(C)CCCC3)CS[C@H]12)c1csc(N)n1; test: purified protein, by the assay type; conditions: 50 mM NaH2PO4 pH 7.4, room temperature

## O=C(Cc1cccs1)N[C@@H](Cn1cc(C(=O)O)nn1)B(O)O [S02030]
[1]
  IC50: 80 nM
[2]
  Ki: < 1000 nM
[3]
  Ki: 160 ± 10 nM
[4]
  IC50: 130 nM
[5]
  Ki: 28 ± 2 nM
[6]
  half-life: 8 h
[7]
  Ki: 44.5 nM and 44 nM and 45 nM
[8]
  Ki: 110 ± 4 nM
[9]
  half-life at 2.5 μM: 9 h

## CO/N=C(\C(=O)N[C@@H]1C(=O)N2C(C(=O)[O-])=C(C[N+]3(C)CCCC3)CS[C@H]12)c1csc(N)n1 [cefepime]
[10]
  MIC: 0.25 µg/mL
[11]
  MIC: 0.5 µg/mL
[12]
  MIC: 0.12 µg/mL
[13]
  MIC: 0.25 µg/mL
[14]
  MIC: 0.5 µg/mL

## CC(C)(O/N=C(\C(=O)N[C@@H]1C(=O)N2C(C(=O)[O-])=C(C[N+]3(CCNC(=O)c4ccc(O)c(O)c4Cl)CCCC3)CS[C@H]12)c1csc(N)n1)C(=O)O [cefiderocol]
[10]
  MIC: 0.5 µg/mL
[11]
  MIC: 1 µg/mL
[12]
  MIC: 1 µg/mL
[15]
  kcat: 0.60 s^–1
[13]
  MIC: 0.5 µg/mL
[14]
  MIC: 2 µg/mL

## Cn1c(N)c(NC(=O)NCCN)c[n+]1CC1=C(C(=O)O)N2C(=O)[C@@H](NC(=O)/C(=N\OC(C)(C)C(=O)[O-])c3nsc(N)n3)[C@H]2SC1 [ceftolozane]
[10]
  MIC: 8 µg/mL
[11]
  MIC: 256 µg/mL
[12]
  MIC: 128 µg/mL
[15]
  kcat: 4.23 s^–1
[13]
  MIC: 8 µg/mL
[14]
  MIC: 256 µg/mL

## ADC-7 (Acinetobacter baumannii)
[16]; other: ADC-7, substrate
  kcat/Km: 2000 M⁻¹ s⁻¹
[17]; other: ADC-7, substrate
  Km: 57.5 ± 4.6 µM
  kcat: 720 ± 18.6 s⁻¹
  kcat/Km: 1.25e+07 ± 1.33e+06 M⁻¹ s⁻¹
[18]; other: ADC-7, substrate
  Km: 204.2 ± 11.2 µM
  kcat: 659 ± 16.6 s⁻¹
  kcat/Km: 3.22e+06 ± 260000 M⁻¹ s⁻¹
[19]; other: ADC-7, substrate
  kcat/Km: < 1000 M⁻¹ s⁻¹
[20]; other: ADC-7, substrate
  kcat/Km: < 1000 M⁻¹ s⁻¹
[21]; other: ADC-7, substrate
  kcat/Km: 6400 M⁻¹ s⁻¹

## ADC-30 (Acinetobacter baumannii)
[16]; other: ADC-30, substrate
  kcat/Km: 3300 M⁻¹ s⁻¹
[17]; other: ADC-30, substrate
  Km: 46.3 ± 3.7 µM
  kcat: 538 ± 12.9 s⁻¹
  kcat/Km: 1.16e+07 ± 1.21e+06 M⁻¹ s⁻¹
[18]; other: ADC-30, substrate
  Km: 174.8 ± 8.8 µM
  kcat: 763 ± 16.5 s⁻¹
  kcat/Km: 4.36e+06 ± 310000 M⁻¹ s⁻¹
[19]; other: ADC-30, substrate
  kcat/Km: < 1000 M⁻¹ s⁻¹
[20]; other: ADC-30, substrate
  kcat/Km: < 1000 M⁻¹ s⁻¹
[21]; other: ADC-30, substrate
  kcat/Km: 4900 M⁻¹ s⁻¹

## ADC-33 (Acinetobacter baumannii)
[16]; other: ADC-33, substrate
  Km: 59.3 ± 7.80 µM
  kcat: 3.71 ± 0.088 s⁻¹
  kcat/Km: 62600 ± 9700 M⁻¹ s⁻¹
[17]; other: ADC-33, substrate
  Km: 45.8 ± 6.07 µM
  kcat: 707 ± 28.2 s⁻¹
  kcat/Km: 1.54e+07 ± 2.66e+06 M⁻¹ s⁻¹
[18]; other: ADC-33, substrate
  Km: 95.3 ± 3.5 µM
  kcat: 347 ± 4.5 s⁻¹
  kcat/Km: 3.64e+06 ± 180000 M⁻¹ s⁻¹
[19]; other: ADC-33, substrate
  Km: 107 µM and 107.2 ± 13.8 µM
  kcat: 0.6 ± 0.0315 s⁻¹
  kcat/Km: 5600 ± 1000 M⁻¹ s⁻¹
[20]; other: ADC-33, substrate
  Km: 219.3 ± 21.6 µM
  kcat: 4.23 ± 0.18 s⁻¹
  kcat/Km: 19300 ± 2700 M⁻¹ s⁻¹
[21]; other: ADC-33, substrate
  kcat/Km: 16900 M⁻¹ s⁻¹

## ADC-162 (Acinetobacter baumannii)
[16]; other: ADC-162, substrate
  kcat/Km: 3400 M⁻¹ s⁻¹
[17]; other: ADC-162, substrate
  Km: 88.1 ± 8.06 µM
  kcat: 591 ± 20 s⁻¹
  kcat/Km: 6.71e+06 ± 840000 M⁻¹ s⁻¹
[18]; other: ADC-162, substrate
  Km: 382.0 ± 26.4 µM
  kcat: 656 ± 22.8 s⁻¹
  kcat/Km: 1.72e+06 ± 180000 M⁻¹ s⁻¹
[19]; other: ADC-162, substrate
  kcat/Km: < 1000 M⁻¹ s⁻¹
[20]; other: ADC-162, substrate
  kcat/Km: < 1000 M⁻¹ s⁻¹
[21]; other: ADC-162, substrate
  kcat/Km: 2800 M⁻¹ s⁻¹
